Drawing on patent US6365161, this text covers Antibody sites per cell (antibody sites per cell) and percent of binding via the Fv portion for 1 molecule.

Assay [1] has as its target human FcγRI (CD64) on cells (human) (UniProt P12314). The assay is described as follows: flow cytometry, fluorescein-conjugated antibody on peripheral blood monocytes. A general note: A flow cytometer gives signals particle by particle.
In assay [2] the target is soluble fusion protein consisting of the extracellular domain of human FcγRI and human IgM heavy chain (sFcγRI-µ) (human) (UniProt P12314). The assay can be described thus: ELISA on captured FcγRI/IgM heavy chain fusion protein, against a nonspecific human IgG1. On the technique in general: ELISA stands for enzyme-linked immunosorbent assay.
Sequence of soluble fusion protein consisting of the extracellular domain of human FcγRI and human IgM heavy chain (sFcγRI-µ) (human) (P12314 other isoform, or with tags, fused parts or gaps limits assumed): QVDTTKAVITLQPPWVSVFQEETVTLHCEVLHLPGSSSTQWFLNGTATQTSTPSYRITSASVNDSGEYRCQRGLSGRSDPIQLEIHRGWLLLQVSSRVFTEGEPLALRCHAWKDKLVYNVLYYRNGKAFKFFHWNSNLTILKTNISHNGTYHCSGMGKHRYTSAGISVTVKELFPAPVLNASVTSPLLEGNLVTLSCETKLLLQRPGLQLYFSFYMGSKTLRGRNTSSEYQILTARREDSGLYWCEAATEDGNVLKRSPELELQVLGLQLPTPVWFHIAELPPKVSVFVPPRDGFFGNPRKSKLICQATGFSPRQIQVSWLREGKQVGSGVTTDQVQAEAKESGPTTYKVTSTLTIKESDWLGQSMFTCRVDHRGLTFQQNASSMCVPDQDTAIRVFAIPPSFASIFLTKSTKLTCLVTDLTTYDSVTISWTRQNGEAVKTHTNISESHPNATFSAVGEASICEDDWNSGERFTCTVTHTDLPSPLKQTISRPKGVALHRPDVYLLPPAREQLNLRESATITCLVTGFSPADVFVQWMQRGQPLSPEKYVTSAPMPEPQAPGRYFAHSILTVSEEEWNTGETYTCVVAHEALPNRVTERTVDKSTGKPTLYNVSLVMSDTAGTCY

Sequence of human FcγRI (CD64) on cells (human) (P12314 16-374): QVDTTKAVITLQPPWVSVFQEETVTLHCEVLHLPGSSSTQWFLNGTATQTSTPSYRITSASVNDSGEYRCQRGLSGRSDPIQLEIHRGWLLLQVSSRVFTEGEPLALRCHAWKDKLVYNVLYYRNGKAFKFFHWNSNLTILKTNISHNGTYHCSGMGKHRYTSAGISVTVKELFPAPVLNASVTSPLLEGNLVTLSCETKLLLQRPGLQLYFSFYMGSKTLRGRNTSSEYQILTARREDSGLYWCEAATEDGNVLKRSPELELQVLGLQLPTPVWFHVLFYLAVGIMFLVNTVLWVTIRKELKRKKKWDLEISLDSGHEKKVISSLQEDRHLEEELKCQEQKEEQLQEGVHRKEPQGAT

B1: humanized anti-FcγRI antibody H22 (KOL VH/REI Vκ mAb) (antibody, from a related filing, V domains shown)
VH: EVQLVESGGGVVQPGRSLRLSCSSSGFIFSDNYMYWVRQAPGKGLEWVATISDGGSYTYYPDSVKGRFTISRDNSKNTLFLQMDSLRPEDTGVYFCARGYYRYEGAMDYWGQGTPVTVSS
VL: DIQLTQSPSSLSASVGDRVTITCKSSQSVLYSSNQKNYLAWYQQKPGKAPKLLIYWASTRESGVPSRFSGSGSGTDFTFTISSLQPEDIATYYCHQYLSSWTFGQGTKVEIK
Molecule B1 returned an Antibody sites per cell (antibody sites per cell) in assay [1] of 10500. The molecule also had a percent of binding via the Fv portion in assay [2] of more than 95%.
